Usually stoichiometry N stands for a count of units in the complex or per binding partner.

The data set deals with the molecule itself. The data set can be described thus: crystal structure; three structures of GlgE (apo form, maltose co-crystallization, maltose-1P co-crystallization); sitting-drop vapour diffusion at 291 K, ~7 mg/ml protein; one dimer per asymmetric unit.

B1: Mycobacterium thermoresistibile GlgE (enzyme, UniProt G7CL00 1-696, looked up)
chain: MAGRIVIDDVQPVVSNGRYPAKAVVGEVVPVAATVWREGHDAVAATLVVRYHGTTYPDLADPPPGVPGADRTAVPIGDVMTPAAPVKPQRLPMSPGHTPDVFHGHFTPDRVGLWTYRVDGWGDPIASWRHNVTAKLDAGQGESELNNDLLVGARLLERAATGVPRELREALLEAAAALRAPGDPFTRAGAALSAEVSDLLAEYPLREFVTRGEQYGVWVDRPEARFSSWYEMFPRSTGGWDAEGRPVHGTFATAAEALPRIARMGFDVVYLPPIHPIGKVHRKGRNNSVTAAPGDVGSPWAIGSDEGGHDAVHPQLGTIEDFDEFVASARDLGLEVALDLALQCAPDHPWAREHPEWFTVLPDGSIAYAENPPKKYQDIYPLNFDNDPAGIYQEVLRVVRFWISHGVNIFRVDNPHTKPPNFWAWLIGQIKNENPDVLFLSEAFTRPARLYGLAKLGFTQSYTYFTWRTSKWELTEFGQEIAAKADIARPNLFVNTPDILHESLQHGGPGMFAIRAVLAATMGPAWGVYSGYELFENQPVRPGSEEYLNSEKYELRPRDFESALARGESLEPFLTRLNEIRRLHPALRELRTIRFHHVDNDALLAYSKFDPGTGDTVLVVVTLNPFGAEEATLWLDMPELGMEPYDRFWVRDEITGEEYQWGQANYVRLDPAKAVAHVLNMPLIPADKRLQLLRRE
notes: GlgE (alpha-1,4-glucan:maltose-1-phosphate maltosyltransferase) of Mycobacterium thermoresistibile DSM 44167; glgE gene amplified from chromosomal DNA with a forward primer that begins at the GTG start codon and a reverse primer that ends at the stop codon; The construct with the cleavable N-terminal SUMO tag gave all crystals; also called maltosyl transferase; source: E. coli BL21(DE3), purified …
As for B1, the “stoichiometry N” value was 2.
